Experiment [1] addresses refolded PD-1 protein (L25-R147) expressed in E. coli (Homo sapiens, UniProt Q15116). The experiment is described as follows: SPR.
The target in experiment [2] is recombinant human PD-1 extracellular domain (ECD) fusion protein (human, UniProt Q15116). The experiment is described as follows: ELISA. In general terms: ELISA stands for enzyme-linked immunosorbent assay.
For experiment [3], the target named is human PD-1 on 293T cells stably transfected with human PD-1 (human, UniProt Q15116). The experiment is described as follows: flow cytometry on cells. (In flow cytometry, cells or beads pass a laser one at a time.)
Chain of human PD-1 on 293T cells stably transfected with human PD-1 (Q15116 25-288): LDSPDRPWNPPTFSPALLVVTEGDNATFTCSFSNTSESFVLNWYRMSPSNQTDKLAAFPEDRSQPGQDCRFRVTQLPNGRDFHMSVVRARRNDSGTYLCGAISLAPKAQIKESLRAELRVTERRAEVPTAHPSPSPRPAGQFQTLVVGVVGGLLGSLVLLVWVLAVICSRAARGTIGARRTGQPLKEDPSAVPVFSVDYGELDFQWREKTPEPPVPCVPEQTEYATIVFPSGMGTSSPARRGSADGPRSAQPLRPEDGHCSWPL

Values joined by “and” are separate entries in the source; they are usually repeats but may differ in a detail not shown here. Identical values can stand only once.

Chain of recombinant human PD-1 extracellular domain (ECD) fusion protein (Q15116 25-170): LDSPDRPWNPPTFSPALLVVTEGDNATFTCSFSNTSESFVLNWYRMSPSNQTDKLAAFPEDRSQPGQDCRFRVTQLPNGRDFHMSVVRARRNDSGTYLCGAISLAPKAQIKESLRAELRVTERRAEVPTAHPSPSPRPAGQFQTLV
Chain of refolded PD-1 protein (L25-R147) expressed in E. coli (Q15116 25-147): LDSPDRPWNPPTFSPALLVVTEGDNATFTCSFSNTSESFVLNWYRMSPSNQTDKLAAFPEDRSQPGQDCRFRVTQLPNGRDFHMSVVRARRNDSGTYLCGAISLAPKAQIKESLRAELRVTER

B1: toripalimab (antibody, V domains shown)
VH: QGQLVQSGAEVKKPGASVKVSCKASGYTFTDYEMHWVRQAPIHGLEWIGVIESETGGTAYNQKFKGRVTITADKSTSTAYMELSSLRSEDTAVYYCAREGITTVATTYYWYFDVWGQGTTVTVSS
VL: DVVMTQSPLSLPVTLGQPASISCRSSQSIVHSNGNTYLEWYLQKPGQSPQLLIYKVSNRFSGVPDRFSGSGSGTDFTLKISRVEAEDVGVYYCFQGSHVPLTFGQGTKLEIK
Broadly, the Kd is the concentration at which binding is half-saturated. Read a low Kd as a tighter complex. In general, IC50 refers to the concentration that gives 50% inhibition. In the case of B1, the affinity in experiment [1], expressed as Kd, was 0.324 nM. Further, the IC50 in experiment [2] is 0.8 nM and 1.3 nM; in experiment [3], 1.3 nM and 3.7 nM.

For the origin of these results see PMC6601540 (mAbs, 2019).
